Biological target: HA-Ago2K212A, in Ago2-knockout A549 and HCC1806 cells (human) (UniProt Q9UKV8)
Test: co-IP; Ago2-knockout A549 and HCC1806 cells expressing HA-Ago2Wt, HA-Ago2K212A or HA-Ago2K212R; IP with anti-HA, blot for endogenous CAV1; ratio pCAV1/pHA; vehicle or TM (10 µM)

- percent decrease of co-precipitated CAV1 per precipitated HA-Ago2 (pCAV1/pHA) against HA-Ago2Wt: 46%
Substance: Caveolin-1 (CAV1), endogenous (from UniProt Q03135 1-178) (natural protein)
